Our source for the binding result and activity values is patent US20180170984, “SITE-SPECIFIC DNA BASE EDITING USING MODIFIED APOBEC ENZYMES” (Regents of the University of Minnesota, published 2018).

In one series the target is APOBEC3A E72A (1-195) (Homo sapiens, UniProt P31941 SEQ:1-195, E72A). As to the kind of experiment: structure; crystal structure 3.15 Å, PDB 5SWW, U-shaped ssDNA, Zn. The protocol:
Purified A3A and A3Bctd* were mixed with ˜1.5 molar excess ssDNA (see below) at a final protein concentration of 25-30 mg ml⁻¹. The A3A-ssDNA complex crystal was obtained in a sitting drop formed by mixing the complex solution with an equal volume of 0.2 M NaF, 20% (w/v) PEG3350, 0.1 M Bis-Tris propane (pH 6.5), equilibrated via vapor diffusion against the same reservoir solution. The A3Bctd*-ssDNA crystal was obtained similarly, using a reservoir solution consisting of 0.45 M NaI and 20% (w/v) PEG3350. The crystals were mounted directly from the Intelli-Plate 96 (Art Robbins Instruments) and flash cooled in liquid nitrogen using glycerol or ethylene glycol as cryo-protectant. X-ray diffraction data were collected at the Advanced Photon Source Northeastern Collaborative Access Team beamline 24-ID-C using the selenium K-absorption edge wavelength, and the data were processed with XDS (Kabsch, Acta Crystallogr D Biol Crystallogr 66:125-132, 2010). The A3A-DNA complex crystal is in the space group of P2221. […] Using monomeric A3A (pdb 4XXO; Bohn et al., Structure 23:903-911, 2015) as a search model, the molecular replacement calculations by PHASER (McCoy et al., J Appl Crystallogr 40:658-674, 2007) located four copies of A3A in the asymmetric unit. […]

For a further series, the target named is APOBEC3A D131A (Homo sapiens, UniProt P31941 SEQ:1-199, D131A). As to the kind of experiment: deamination, 50 nM enzyme, 1 h 37 C. The following applies: tags: myc-His, 293T; label: 3'-fluorescein. The text has this:
(§1) FIGS. 10A-10C provide corroborating biochemical data for human A3A. FIGS. 10A and 10B show DNA cytosine deamination by human A3A (WT, wild-type) and the indicated mutant derivatives (S, substrate; P, product). The corresponding anti-MYC (A3A) and anti-TUBULIN immunoblots indicated similar levels of A3A and soluble extract in each experiment relative to controls (A3A has two bands due to alternative translation initiation from Met1 or Met13). Reactions in FIG. 10A interrogated active site mutants using a 43-nucleotide 5′-TC-containing ssDNA substrate, and reactions in FIG. 10B additionally interrogated the identity of the −1 position (A, C, G, or T) relative to the target cytosine. The results are representative of two independent experiments. FIG. 10C is a series of graphs quantifying product accumulation in dose response experiments for A3A and the indicated D131 derivatives using the same ssDNA substrates as FIG. 10B.
(§2) Recombinant A3A-myc-His and mutant derivatives were expressed in 293T cells and purified as described by nickel affinity chromatography (Stenglein et al., supra; Li et al., supra; and Carpenter et al. 2012, supra). Activity assays were conducted as outlined above, except reactions were initiated by adding 5 μl of enzyme (2-fold dilutions starting at 200 nM) to 5 μl of 50 mM NaCl, 10 mM HEPES buffer (pH 7.4) containing 1.6 μM fluorescently labeled ssDNA (sequences above). Reactions progressed 1 hour at 37° C. and processed and quantified as described above.

Another series addresses APOBEC3A D131E (Homo sapiens, UniProt P31941 SEQ:1-199, D131E). Description: deamination, 50 nM enzyme, 1 h 37 C. The note with it: tags: myc-His, 293T; label: 3'-fluorescein.
Text: as §1, §2

A further series has as its target APOBEC3A D131T (Homo sapiens, UniProt P31941 SEQ:1-199, D131T). Description: deamination, 50 nM enzyme, 1 h 37 C. The following applies: tags: myc-His, 293T; label: 3'-fluorescein.
Text: as §1, §2

The target in another series is APOBEC3A wild-type (Homo sapiens, UniProt P31941 SEQ:1-199). As to the kind of experiment: deamination, 50 nM enzyme, 1 h 37 C. The note with it: tags: myc-His, 293T; label: 3'-fluorescein.
Sequence of APOBEC3A wild-type (P31941 whole entry): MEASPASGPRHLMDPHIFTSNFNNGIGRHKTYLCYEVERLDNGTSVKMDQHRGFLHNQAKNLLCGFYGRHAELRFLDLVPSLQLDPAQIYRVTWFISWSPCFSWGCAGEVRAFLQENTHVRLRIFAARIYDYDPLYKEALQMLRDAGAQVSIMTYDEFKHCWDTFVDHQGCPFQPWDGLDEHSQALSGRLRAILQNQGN
Text: as §1, §2

Sequence of APOBEC3A D131T (P31941 whole entry D131T): as the sequence (P31941 whole entry) above, with D131T counted along it
Sequence of APOBEC3A D131A (P31941 whole entry D131A): as the sequence (P31941 whole entry) above, with D131A counted along it
Sequence of APOBEC3A D131E (P31941 whole entry D131E): as the sequence (P31941 whole entry) above, with D131E counted along it
Sequence of APOBEC3A E72A (1-195) (P31941 1-195 E72A): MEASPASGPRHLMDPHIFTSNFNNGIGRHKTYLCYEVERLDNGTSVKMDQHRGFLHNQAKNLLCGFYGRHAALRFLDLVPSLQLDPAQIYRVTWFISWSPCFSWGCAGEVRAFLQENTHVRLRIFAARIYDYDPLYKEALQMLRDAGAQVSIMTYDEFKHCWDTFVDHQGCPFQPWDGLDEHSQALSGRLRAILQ

B1: A3A crystallization ligand (ssDNA)
DNA: AAAAAAATCGGGAAA
With B1, the binding result with APOBEC3A E72A (1-195) is given as “binds”.

B2: -1 TCA substrate (ssDNA)
DNA: ATTATTATTATTCAAATGGATTTATTTATTTATTTATTTATTT
In the case of B2, the activity with APOBEC3A D131A came out at 3.7 % product; with APOBEC3A D131E, 27.3 % product; in the series with APOBEC3A D131T, 96.6 % product; in the series with APOBEC3A wild-type, 98.3 % product.

B3: -1 ACA substrate (ssDNA)
DNA: ATTATTATTATACAAATGGATTTATTTATTTATTTATTTATTT
As for B3, the activity turned out to be 8.7 % product with APOBEC3A D131A, 36.6 % product with APOBEC3A D131E, 16.6 % product with APOBEC3A D131T and 7.6 % product with APOBEC3A wild-type.

B4: -1 GCA substrate (ssDNA)
DNA: ATTATTATTATGCAAATGGATTTATTTATTTATTTATTTATTT
Take B4: the activity with APOBEC3A D131A was 4 % product; with APOBEC3A D131E, 30.8 % product; with APOBEC3A D131T, 14.2 % product; in the series with APOBEC3A wild-type, 13 % product.

B5: -1 CCA substrate (ssDNA)
DNA: ATTATTATTATCCAAATGGATTTATTTATTTATTTATTTATTT
For B5, the activity worked out at 10.1 % product with APOBEC3A D131A, 67.5 % product in the series with APOBEC3A D131T and 42.9 % product with APOBEC3A wild-type.
